Assay results as given in patent US20240301068A1 (BEIJING HANMI PHARMACEUTICAL, published 2024).

Legend:
[1] = biological target: T1, recombinant human PD-L1 (Sino Biological Inc.) (human, UniProt Q9NZQ7 19-239); assay: ELISA, plate coated with 1 ug/mL recombinant human PD-L1, anti-human IgG-HRP, OD450
Experimental: (§1) A 96-well high-adsorption ELISA plate was coated with 1 μg/mL of the recombinant human PD-L1, cynomolgus PD-L1, rat PD-L1 and mouse PD-L1 (all purchased from Sino Biological Inc.), at 100 μL per well using carbonate buffer solution, pH=9.6 at 4° C. overnight. The plate was washed 5 times with PBST, and then blocked using PBST with 1% BSA, 300 μL/well, and incubated at 25° C. for 1 hour, and then washed 5 times with PBST. The chimeric anti-human PD-L1 antibody samples serially diluted in PBST with 1% BSA were added, 100 μL/well, incubated at 25° C. for 1 hour, and then washed 5 times with PBST. The horseradish peroxidase-labeled anti-human IgG antibody (Chemicon, catalog number AP309P) diluted 1:10000 in PBST with 1% BSA was then added, 100 μL per well, and incubated at 25° C. for 1 hour. The plate was washed 5 times with PBST. The colorimetric substrate TMB was added, 100 μL/well, and developed at room temperature for 10 minutes. 1M H₂SO₄ was added, 100 μL/well, to stop the development. The absorbance at 450 nm was read on a microplate reader.

[2] = biological target: recombinant mouse PD-L1 (Sino Biological Inc.) (mouse, UniProt Q9EP73 19-238); assay: ELISA, plate coated with 1 ug/mL recombinant mouse PD-L1, anti-human IgG-HRP, OD450
recombinant mouse PD-L1 (Sino Biological Inc.), sequence (Q9EP73 19-238 limits assumed): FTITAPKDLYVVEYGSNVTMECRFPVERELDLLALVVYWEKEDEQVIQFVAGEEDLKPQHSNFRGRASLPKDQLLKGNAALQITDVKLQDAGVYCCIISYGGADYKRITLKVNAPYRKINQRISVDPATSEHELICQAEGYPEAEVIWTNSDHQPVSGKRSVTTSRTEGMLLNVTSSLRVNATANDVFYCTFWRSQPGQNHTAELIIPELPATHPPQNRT
Experimental: as §1

[3] = biological target: T1, recombinant human PD-L1 (Sino …); assay: ELISA, human PD-L1 coated
Experimental: as §1, with “human” for “human PD-L1, cynomolgus PD-L1, rat”, “(Sino” for “and mouse PD-L1 (all purchased from Sino”, “Inc.)” for “Inc.),”, “The chimeric anti-human PD-L1 antibody samples serially diluted in PBST with 1% BSA were added, 100 μL/well, incubated at 25° C. for 1 hour, and then washed 5 times with PBST.” left out

[4] = biological target: recombinant rat PD-L1 (Sino Biological Inc.) (rat, UniProt D4AE25 19-239); assay: ELISA, plate coated with 1 ug/mL recombinant rat PD-L1, anti-human IgG-HRP, OD450
recombinant rat PD-L1 (Sino Biological Inc.), sequence (D4AE25 entry or part of it limits assumed): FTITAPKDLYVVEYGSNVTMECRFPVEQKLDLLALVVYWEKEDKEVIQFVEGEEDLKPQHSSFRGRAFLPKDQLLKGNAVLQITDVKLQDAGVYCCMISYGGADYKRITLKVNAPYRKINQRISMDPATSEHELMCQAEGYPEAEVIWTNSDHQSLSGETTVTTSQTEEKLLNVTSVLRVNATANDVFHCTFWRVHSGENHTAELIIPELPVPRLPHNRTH
Experimental: as §1

[5] = biological target: recombinant cynomolgus PD-L1 (Sino Biological Inc.) (cynomolgus, UniProt G7PSE7 19-238); assay: ELISA, plate coated with 1 ug/mL recombinant cynomolgus PD-L1, anti-human IgG-HRP, OD450
recombinant cynomolgus PD-L1 (Sino Biological Inc.), sequence (G7PSE7 entry or part of it limits assumed): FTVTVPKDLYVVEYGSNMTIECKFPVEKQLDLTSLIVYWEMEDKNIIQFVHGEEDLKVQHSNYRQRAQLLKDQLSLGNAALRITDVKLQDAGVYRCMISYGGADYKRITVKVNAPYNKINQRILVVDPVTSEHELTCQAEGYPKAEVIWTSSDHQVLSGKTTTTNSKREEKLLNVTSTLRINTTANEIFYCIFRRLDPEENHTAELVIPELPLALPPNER
Experimental: as §1

[6] = biological target: T1, recombinant human PD-L1 (Sino …); assay: direct binding ELISA, plate coated with 1 ug/mL recombinant human PD-L1, anti-human IgG-HRP, OD450; the curve rises, the sheet labels the half-maximal value IC50
Experimental: as §1, with “human” for “human PD-L1, cynomolgus PD-L1, rat”, “(Sino” for “and mouse PD-L1 (all purchased from Sino”, “Inc.)” for “Inc.),”, “The chimeric anti-human PD-L1 antibody samples serially diluted in PBST with 1% BSA were added, 100 μL/well, incubated at 25° C. for 1 hour, and then washed 5 times with PBST.” left out

[7] = biological target: T2, recombinant human PD-L1-Fc protein (human, UniProt Q9NZQ7 19-238, limits assumed); assay: competition ELISA: PD-L1-Fc coated, competitor biotin-labelled PD-1-Fc
T2 construct: Prepared by Beijing Hanmi Pharmaceutical; The GenBank number is NP_001254635.1
T2 sequence (Q9NZQ7 19-238 limits assumed): as the sequence (G7PSE7 entry or part of it limits assumed) above, with T33A, S34A, N62S, Q68R, R82Q, L173F, A185T, I192T, L215H counted along it
Experimental: A 96-well high-adsorption ELISA plate was coated with 1 μg/mL of the recombinant human PD-L1-Fc at 100 μL per well using carbonate buffer solution, pH=9.6 at 4° C. overnight. The plate was washed 5 times with PBST, and then blocked using PBST with 1% BSA, 300 μL/well, and incubated at 25° C. for 1 hour, and then washed 5 times with PBST. […] The Streptavidin-HRP (BD Pharmingen, catalog number 554066) diluted 1:1000 in PBST with 1% BSA was then added, 100 μL per well, and incubated at 25° C. for 1 hour. The plate was washed 5 times with PBST. The colorimetric substrate TMB was added, 100 μL/well, and developed at room temperature for 10 minutes. 1M H₂SO₄ was added, 100 μL/well, to stop the development. The absorbance at 450 nm was read on a microplate reader.

[8] = biological target: T1, recombinant human PD-L1 (Sino …); assay: PD-L1/CD80 blocking assay, competitor CD80, format not described
[9] = biological target: T3, recombinant human PD-L2 (Sino Biological Inc.) (human, UniProt Q9BQ51 20-219); assay: ELISA, plate coated with 1 ug/mL recombinant human PD-L2 (printed B7-DC), anti-human IgG-HRP, OD450; antibody concentration not shown
T3 sequence (looked up): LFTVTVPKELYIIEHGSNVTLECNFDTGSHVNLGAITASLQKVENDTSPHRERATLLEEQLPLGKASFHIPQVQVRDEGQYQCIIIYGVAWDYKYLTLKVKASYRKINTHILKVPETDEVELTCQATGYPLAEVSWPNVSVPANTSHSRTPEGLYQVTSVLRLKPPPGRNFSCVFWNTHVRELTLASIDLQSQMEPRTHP
Experimental: The plate was washed 5 times with PBST, and then blocked using PBST with 1% BSA, 300 μL/well, and incubated at 25° C. for 1 hour, and then washed 5 times with PBST. […] The horseradish peroxidase-labeled anti-human IgG antibody (Chemicon, catalog number AP309P) diluted 1:10000 in PBST with 1% BSA was then added, 100 μL per well, and incubated at 25° C. for 1 hour. The plate was washed 5 times with PBST. The colorimetric substrate TMB was added, 100 μL/well, and developed at room temperature for 10 minutes. 1M H₂SO₄ was added, 100 μL/well, to stop the development. The absorbance at 450 nm was read on a microplate reader.

T1 sequence (Q9NZQ7 19-239 limits assumed): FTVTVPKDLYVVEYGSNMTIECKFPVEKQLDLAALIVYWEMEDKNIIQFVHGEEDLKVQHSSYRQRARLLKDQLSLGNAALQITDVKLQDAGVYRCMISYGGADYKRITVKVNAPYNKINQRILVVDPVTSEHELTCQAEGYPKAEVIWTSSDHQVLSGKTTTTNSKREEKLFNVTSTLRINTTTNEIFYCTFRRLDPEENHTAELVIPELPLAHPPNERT

- EC50 [1]: 0.056 nM
- EC50 [3]: 0.066 nM
- EC50 [5]: 0.074 nM
- EC50 [6]: 0.021 nM
- IC50 [7]: 0.596 nM
- IC50 [8]: 0.762 nM
- binding result [9]: no binding
B1: chimeric anti-human PD-L1 monoclonal antibody (antibody, human IgG1, kappa, V domains shown)
VH: EVQLQQSGAELVKPGASVKLSCTASGFNIEDTYIHWVMQRPEQGLEWIGRIDPANGNTKYDPKFQGKATITADTSSNTAYLQLSSLTSEDTAVYYCGRGLGAWFAYWGQGTLVTVSA
VL: DIVMTQSHKVMSTSVGDRVTITCKASQDVHTAVAWIHQKPGQSPKLLIYSASNRYTGVPDRFTGSGSGTDFTFTISSVQAEDLAVYYCQQHYITPLTFGAGTTLELKR
notes: expressed in ExpiCHO cells; also called Chimeric mAb; Chimeric antibody
- binding result [2]: no binding (tested: about 20 nM (last point on the log axis))
- binding result [4]: no binding (tested: about 20 nM (last point on the log axis))
